Assay results taken from the supplement of paper PMC9112550, “Optimization of the antimicrobial peptide Bac7 by deep mutational scanning” (BMC Biology, 2022).

Tested on: Escherichia coli TOP10
Assay: shrunken log2 fold change of peptide-encoding DNA abundance (4.5 h post-induction vs induction); higher = less antimicrobial activity (less host growth inhibition)
Settings: time post-induction: 4.5 h; library: site-saturation at positions 5, 18, 19, 20
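Further: peptides expressed intracellularly from a pBAD plasmid library in pooled LB shake-flask culture, induced with 0.3% L-arabinose, DNA abundance read by NGS, three biological replicates, DESeq2 with apeglm shrinkage.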

| Sequence | shrunken log2 fold change |
| --- | --- |
| RRIRYRPPRLPRPRPRPYFAPRP | -0.796 |
| RRIRVRPPRLPRPRPRPAFAPRP | 0.666 |
| RRIRVRPPRLPRPRPRPNDTPRP | -0.228 |
| RRIRCRPPRLPRPRPRPGCVPRP | 0.248 |
| RRIRRRPPRLPRPRPRPMICPRP | -0.0373 |
| RRIRTRPPRLPRPRPRPSQSPRP | -0.114 |
| RRIRTRPPRLPRPRPRPEAYPRP | -0.12 |
| RRIRTRPPRLPRPRPRPRPQPRP | 0.146 |
| RRIRYRPPRLPRPRPRPVVVPRP | 0.00571 |
| RRIRERPPRLPRPRPRPVHPPRP | -0.00739 |
| RRIRVRPPRLPRPRPRPFHGPRP | 0.162 |
| RRIRWRPPRLPRPRPRPNDDPRP | 0.0584 |
| RRIRLRPPRLPRPRPRPAWSPRP | 0.103 |
| RRIRWRPPRLPRPRPRPSFNPRP | -0.365 |
| RRIRKRPPRLPRPRPRPCFRPRP | -0.0108 |
| RRIRGRPPRLPRPRPRPRPYPRP | 0.246 |
| RRIRDRPPRLPRPRPRPGIFPRP | 0.0908 |
| RRIRCRPPRLPRPRPRPNQKPRP | 0.184 |
| RRIRARPPRLPRPRPRPEICPRP | 1.01 |
| RRIRPRPPRLPRPRPRPSEDPRP | 0.485 |
| RRIRKRPPRLPRPRPRPGHKPRP | 0.193 |
| RRIRHRPPRLPRPRPRPYSVPRP | -0.481 |
| RRIRERPPRLPRPRPRPRHCPRP | -0.133 |
| RRIRVRPPRLPRPRPRPGCEPRP | 2.45 |
| RRIRPRPPRLPRPRPRPWRAPRP | 0.185 |

| Sequence | shrunken log2 fold change |
| --- | --- |
| RRIRHRPPRLPRPRPRPWHHPRP | 0.0223 |
| RRIRDRPPRLPRPRPRPRVHPRP | -0.0969 |
| RRIRPRPPRLPRPRPRPTFPPRP | 0.025 |
| RRIRMRPPRLPRPRPRPYKIPRP | -0.544 |
| RRIRVRPPRLPRPRPRPWNWPRP | -0.00795 |
| RRIRDRPPRLPRPRPRPEMSPRP | 0.00748 |
| RRIRYRPPRLPRPRPRPPMQPRP | -0.0424 |
| RRIRMRPPRLPRPRPRPGHGPRP | 0.32 |
| RRIRCRPPRLPRPRPRPWAGPRP | 0.124 |
| RRIRQRPPRLPRPRPRPSNCPRP | -0.136 |
| RRIRRRPPRLPRPRPRPTDCPRP | 0.0967 |
| RRIRRRPPRLPRPRPRPLFNPRP | -0.162 |
| RRIRDRPPRLPRPRPRPIADPRP | 0.163 |
| RRIRNRPPRLPRPRPRPSKCPRP | -0.126 |
| RRIRYRPPRLPRPRPRPGYKPRP | -0.978 |
| RRIRSRPPRLPRPRPRPLGNPRP | -0.43 |
| RRIRARPPRLPRPRPRPSPVPRP | 0.355 |
| RRIRSRPPRLPRPRPRPSHVPRP | -0.3 |
| RRIRFRPPRLPRPRPRPVWLPRP | -0.0732 |
| RRIRYRPPRLPRPRPRPPKCPRP | -0.813 |
| RRIRYRPPRLPRPRPRPEAAPRP | 0.319 |
| RRIRWRPPRLPRPRPRPTDMPRP | 0.00348 |
| RRIRARPPRLPRPRPRPKFPPRP | 2.15 |
| RRIRVRPPRLPRPRPRPWMMPRP | -0.0912 |
| RRIRPRPPRLPRPRPRPGCWPRP | 0.621 |

| Sequence | shrunken log2 fold change |
| --- | --- |
| RRIRRRPPRLPRPRPRPQANPRP | 0.118 |
| RRIRYRPPRLPRPRPRPAYDPRP | -0.236 |
| RRIRQRPPRLPRPRPRPPWNPRP | 0.0241 |
| RRIRSRPPRLPRPRPRPKFDPRP | -0.081 |
| RRIRHRPPRLPRPRPRPHINPRP | -0.563 |
| RRIRARPPRLPRPRPRPIRCPRP | 0.188 |
| RRIRPRPPRLPRPRPRPQPAPRP | 0.0892 |
| RRIRMRPPRLPRPRPRPSWRPRP | 0.194 |
| RRIRNRPPRLPRPRPRPTRFPRP | 0.3 |
| RRIRFRPPRLPRPRPRPHSWPRP | -0.0147 |
| RRIRIRPPRLPRPRPRPLVSPRP | -0.244 |
| RRIRKRPPRLPRPRPRPPAKPRP | 0.408 |
| RRIRNRPPRLPRPRPRPKKSPRP | 0.129 |
| RRIRIRPPRLPRPRPRPSSWPRP | 0.025 |
| RRIRQRPPRLPRPRPRPSHRPRP | -0.0821 |
| RRIRERPPRLPRPRPRPMGNPRP | 0.0248 |
| RRIRMRPPRLPRPRPRPIMDPRP | -0.133 |
| RRIRWRPPRLPRPRPRPPHNPRP | 0.527 |
| RRIRTRPPRLPRPRPRPKQAPRP | 0.0749 |
| RRIRHRPPRLPRPRPRPMCKPRP | -0.151 |
| RRIRSRPPRLPRPRPRPWQFPRP | 0.0527 |
| RRIRNRPPRLPRPRPRPKGEPRP | -0.00804 |
| RRIRVRPPRLPRPRPRPEVCPRP | 0.0183 |
| RRIRGRPPRLPRPRPRPKMYPRP | 0.107 |
| RRIRMRPPRLPRPRPRPLWVPRP | 0.0224 |

| Sequence | shrunken log2 fold change |
| --- | --- |
| RRIRGRPPRLPRPRPRPLLKPRP | 1.39 |
| RRIRFRPPRLPRPRPRPVTDPRP | 0.00378 |
| RRIRYRPPRLPRPRPRPAGNPRP | -0.601 |
| RRIRFRPPRLPRPRPRPLPAPRP | 0.51 |
| RRIRYRPPRLPRPRPRPHYCPRP | -0.403 |
| RRIRARPPRLPRPRPRPMQWPRP | 0.442 |
| RRIRKRPPRLPRPRPRPKAKPRP | 0.0663 |
| RRIRHRPPRLPRPRPRPQYLPRP | 0.00943 |
| RRIRLRPPRLPRPRPRPIPIPRP | -0.456 |
| RRIRRRPPRLPRPRPRPWNFPRP | -0.0355 |
| RRIRDRPPRLPRPRPRPIMRPRP | 0.225 |
| RRIRARPPRLPRPRPRPKGQPRP | 0.296 |
| RRIRCRPPRLPRPRPRPIACPRP | -0.285 |
| RRIRQRPPRLPRPRPRPLYLPRP | -0.511 |
| RRIRHRPPRLPRPRPRPTWDPRP | 0.0552 |
| RRIRQRPPRLPRPRPRPHWFPRP | 0.0358 |
| RRIRPRPPRLPRPRPRPYTAPRP | -1.06 |
| RRIRRRPPRLPRPRPRPTANPRP | 0.589 |
| RRIRMRPPRLPRPRPRPCVFPRP | -0.065 |
| RRIRGRPPRLPRPRPRPMKHPRP | 0.0417 |
| RRIRWRPPRLPRPRPRPITTPRP | 0.0992 |
| RRIRLRPPRLPRPRPRPAFRPRP | 0.0862 |
| RRIRGRPPRLPRPRPRPFHPPRP | -0.124 |
| RRIRQRPPRLPRPRPRPSQTPRP | -0.083 |
| RRIRPRPPRLPRPRPRPTSAPRP | 0.156 |

| Sequence | shrunken log2 fold change |
| --- | --- |
| RRIRKRPPRLPRPRPRPIPMPRP | 0.0472 |
| RRIRHRPPRLPRPRPRPPVWPRP | 0.156 |
| RRIRGRPPRLPRPRPRPRRGPRP | 0.813 |
| RRIRARPPRLPRPRPRPRKCPRP | 0.154 |
| RRIRRRPPRLPRPRPRPHQSPRP | 0.128 |
| RRIRVRPPRLPRPRPRPFQCPRP | -0.0433 |
| RRIRGRPPRLPRPRPRPPITPRP | 0.0357 |
| RRIRVRPPRLPRPRPRPKQWPRP | 0.326 |
| RRIRCRPPRLPRPRPRPVIEPRP | -0.141 |
| RRIRRRPPRLPRPRPRPKPRPRP | 0.825 |
| RRIRPRPPRLPRPRPRPGFKPRP | 0.13 |
| RRIRWRPPRLPRPRPRPMQTPRP | 1 |
| RRIRLRPPRLPRPRPRPTRKPRP | 0.374 |
| RRIRDRPPRLPRPRPRPQMDPRP | -0.0397 |
| RRIRSRPPRLPRPRPRPQCWPRP | 0.24 |
| RRIRARPPRLPRPRPRPEANPRP | 1.69 |
| RRIRFRPPRLPRPRPRPRFTPRP | 0.0956 |
| RRIRVRPPRLPRPRPRPIDLPRP | -0.417 |
| RRIRVRPPRLPRPRPRPFIGPRP | -0.291 |
| RRIRDRPPRLPRPRPRPDRPPRP | -0.251 |
| RRIRGRPPRLPRPRPRPPCNPRP | 0.489 |
| RRIRIRPPRLPRPRPRPNPHPRP | -0.581 |
| RRIRRRPPRLPRPRPRPDSIPRP | -0.199 |
| RRIRQRPPRLPRPRPRPWSQPRP | 0.0535 |
| RRIRQRPPRLPRPRPRPFQGPRP | -0.0134 |
